Source: US20040053368A1 (published 2004)

Target: T1, bovine serum albumin (BSA, Sigma) (bovine, UniProt P02769 25-607)
T1 construct: Control protein coated on the ELISA plate
Assay: ELISA, serum albumin coated at 1 mg/ml, detected with anti-human FNCBD monoclonal antibody
Protocol: By the enzyme-linked immunosorbent assay (ELISA), binding ability of the FNCBD-bFGF and the FNCBD-EGF to bovine native collagen (I-AC, Koken), bovine atelocollagen (I-PC, Koken), and bovine serum albumin (BSA, Sigma) was evaluated.
First, 1 mg/ml solutions of native collagen, atelocollagen, and serum albumin were respectively dispensed in the wells of a flat-bottom 96-well ELISA plate at 200 μl/well, and the plate was allowed to stand overnight at 4° C.
The wells were washed three times with PBS containing 0.05% Tween 20, and 100 μl of anti-human FNCBD monoclonal antibody (Takara Shuzo) diluted 1:1000 was dispensed in the wells and allowed to stand at room temperature for 1 hour. The wells were washed three times with 0.05% Tween 20/PBS, and 100 μl of peroxidase-labelled anti-mouse immunoglobulin polyclonal antibody (Dako Japan) diluted 1:1000 was dispensed in the wells and allowed to stand at room temperature for 1 hour. After washing the wells 6 times with 0.05% Tween 20/PBS, 0.1M citrate buffer, pH 4.7 containing 1 mg/ml o-phenylenediamine and 0.03% hydrogen peroxide was dispensed in the wells and allowed to stand for 10 minutes. The reaction was then terminated by addition of 50 μl of 4N sulfuric acid and absorption at 492-690 nm was measured.

T1 sequence (P02769 25-607 limits assumed): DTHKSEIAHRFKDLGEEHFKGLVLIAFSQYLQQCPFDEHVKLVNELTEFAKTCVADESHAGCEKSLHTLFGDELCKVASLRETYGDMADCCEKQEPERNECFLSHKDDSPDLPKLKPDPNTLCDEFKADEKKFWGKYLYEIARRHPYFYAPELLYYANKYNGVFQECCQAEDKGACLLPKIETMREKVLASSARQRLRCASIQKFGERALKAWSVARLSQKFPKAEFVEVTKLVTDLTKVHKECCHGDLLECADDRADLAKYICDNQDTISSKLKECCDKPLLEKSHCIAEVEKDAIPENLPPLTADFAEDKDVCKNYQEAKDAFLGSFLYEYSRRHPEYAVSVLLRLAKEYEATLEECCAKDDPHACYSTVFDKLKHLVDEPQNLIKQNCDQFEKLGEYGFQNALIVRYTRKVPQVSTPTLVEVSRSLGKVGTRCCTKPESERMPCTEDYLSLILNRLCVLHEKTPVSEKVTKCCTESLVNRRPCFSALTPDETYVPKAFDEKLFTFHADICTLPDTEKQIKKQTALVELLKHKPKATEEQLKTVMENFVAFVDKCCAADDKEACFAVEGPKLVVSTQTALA

- binding result: no binding
B1: human FNCBD/human EGF hybrid polypeptide (FNCBD-EGF) (other)
chain: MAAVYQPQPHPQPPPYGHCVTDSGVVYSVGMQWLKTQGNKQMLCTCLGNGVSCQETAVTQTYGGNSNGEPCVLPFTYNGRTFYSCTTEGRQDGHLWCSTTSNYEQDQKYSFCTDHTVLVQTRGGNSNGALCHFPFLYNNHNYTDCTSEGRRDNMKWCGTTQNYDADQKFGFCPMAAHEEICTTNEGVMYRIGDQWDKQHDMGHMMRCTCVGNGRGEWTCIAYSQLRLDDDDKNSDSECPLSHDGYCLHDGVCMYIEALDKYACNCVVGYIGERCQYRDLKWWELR
notes: also called FN484-EGF; FNCBD/EGF hybrid polypeptide
